Test results reported in publication PMC12157784, “Photoelectrochemical Biosensor Based on 1D In2O3 Tube Decorated with 2D ZnIn2S4 Nanosheets for Sensitive PSA Detection”.

Target: prostate specific antigen (PSA) (UniProt P07288 25-261)
Assay: photoelectrochemical aptasensor (photocurrent decrease); PBS pH 7.4, aptamer immobilised on FTO/In2O3-ZnIn2S4, BSA blocked; linear 0.001-50 ng/mL, LOD 0.00037 ng/mL (not a Kd); PSA incubated 30 min at room temperature on aptamer electrode; 0.01 M PBS pH 7.4 as incubation/wash buffer; photocurrent read in 0.1 M ascorbic acid

Sequence of prostate specific antigen (PSA) (P07288 25-261): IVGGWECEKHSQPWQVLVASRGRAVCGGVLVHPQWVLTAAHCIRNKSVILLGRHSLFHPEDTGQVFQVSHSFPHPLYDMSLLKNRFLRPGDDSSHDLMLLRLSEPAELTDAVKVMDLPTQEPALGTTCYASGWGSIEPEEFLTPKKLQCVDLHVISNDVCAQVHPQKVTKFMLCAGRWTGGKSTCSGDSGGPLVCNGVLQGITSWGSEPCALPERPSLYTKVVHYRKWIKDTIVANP

Question: Does ATTAAAGCTCGCCATCAAATAGC (ssDNA, 5'-NH2-(CH2)6) [PSA aptamer] bind?
Answer: Result: binds
